Measurements as given in article PMC7887213 (Nature Communications, 2021).

B1: Fab356 (Fab, V domains shown)
VH: VQLVESGGGVVQPGRSLRLSCAASGFTFRNFGMHWVRQTPGKGLEWVAVIWHDGSNKFYADSVEGRFTISRDNSKNMIYLQMNSLRVEDTAIYYCARDSLFYDHDNSGYYGYWGQGTLVTVSS
VL: QIVMTQSPATVSVSPGERATLSCRASRSVTSKLAWYQQKPGQAPRLLIYGASTRATGIPARFSGSGSGTEFTLTISSLQSEDFAVYFCQQYNNGFTFGPGTKVDFK
notes: also called mAb356; source: ExpiCHO cells, purified (HiTrap Protein G, SEC)
B2: Fab397 (Fab, V domains shown)
VH: EVQLVKSGGGLVKPGGSLRLSCAVSGFTFTDAWMSWVRQAPGKGPEWVGRIKSNPDGGTTDYAAPVRGRFTISRDDSKNTLYLQMNNLKTEDTAVYYCITDRDFYRSGGSWGQGTLVTV
VL: DIVMTQSPLSLPVTPGEPASISCRSRQSLLYSNGDNYLDWYLQKPGQSPQLLIYLGSNRAPGVPDRFSGSGSGTDFTLKISRVEAEDVGVYYCMQTLQTPHTFGQGTKLEIK
notes: also called mAb397; source: ExpiCHO cells, purified (HiTrap Protein G, SEC)
B3: Fab366 with elbow mutations in the heavy chain (crystallised form) (Fab, V domains shown)
VH: QVQLVQSGAEVKKPGASARVSCKASGYTLTDFYLHWVRQAPGQGLEWMGWLNPHSGGTNYAQKFLGRVSMTRDTSISTAYMELNKLISDDTAVYFCVRSDQEALRGAFDIWGQGTMVFVVS
VL: DIQMTQSPSSLSASVGDTVTITCRASQSINDYLNWYQQKPGKAPKLLIYATSSLHSGVPSRFSGSGFGTDFTLTISSLQPEDSATYLCQQSHSLWTFGQGTKVEVK
notes: source: ExpiCHO cells, purified (HiTrap Protein G, SEC)
B4: Fab399 (Fab, V domains shown)
VH: EVQLVESGGGLVQPGRSLRLSCTTSGFTFGDYAMSWFRQAPGKGLEWVGFIRSKGFGGTAEYAAFVKGRFTISRDDSRSIAYLQMTSLKPEDTAVYYCSRVGVVIATAVYWGQGTLVTVSS
VL: DILMTQTPLSLSVTPGQPASISCKSSQSLLDNDGKTYLYWYLQKPGQSPQLLIYEVSNRFSGVPERFSGSGSGTDFTLKIRRVEAEDVGVYYCMQRIDLPWTFGQGTKVEIK
notes: also called mAb399; source: ExpiCHO cells, purified (HiTrap Protein G, SEC)
B5: Fab317 (Fab, V domains shown)
VH: QMQLVESGGGVVQPGRSLRLSCTASGFTFSTYAMHWVRQSPGQGLQWVAVISYHSTNKYYEDSVRGRFTISRDNSKNTLYLQMNSLRAEDTAVYYCARDGYSSSFFDFWGQGTLVTVSS
VL: DIQMTQSPSTLSASVGDRVAITCRASQSISRWLAWYQQQPGKAPKLLMSGASVLESGVPSRFSGSGSGTEFTLTISSLQPDDFATYYCQHYNSYFVTFGQGTKVEIK
notes: also called mAb317; source: ExpiCHO cells, purified (HiTrap Protein G, SEC)
B6: Fab395 with elbow mutations in the heavy chain (crystallised form) (Fab, V domains shown)
VH: QEQLVESGGGVVQPGRSLRLSCAAASEFCFSCYGMHWVRQAPGKGLEWVAVIWHDGSNQHFADSVKGRFTISRDNSKNIMYLQMNSLRAEDTAVYYCASATRYDILTGAFDYWGQGTLVTVVS
VL: DIQMTQSPSTLSASVGDRVTITCRASQSISTWLAWYQQKPGKAPKLLIYKASSLESGVPSRFSGSGSGTEFTLTISSLQPDDFATYYCQQYSRYWTFGQGTKVEIK
notes: as for B3

Columns and labels:
Details in all cases: both partners purified
[1] = molecular target: T1, NPNA6 peptide (Ac-[residues removed]-NH2) (Plasmodium falciparum (synthetic CSP …); experiment: ITC; peptide in the syringe, Fab (~10 uM) in the cell; DPBS; 25 C; single-site binding model; triplicate; apparent affinity
T1 construct: source: synthetic peptide, bought: Innopep Inc

[2] = molecular target: T2, NPNA4 peptide (Ac-[residues removed]-NH2) (Plasmodium falciparum (synthetic CSP …); experiment: as above
T2 construct: source: synthetic peptide, bought: Innopep Inc

[3] = molecular target: T3, NPNA2 peptide (Ac-[residues removed]-NH2) (Plasmodium falciparum (synthetic CSP …); experiment: as above
T3 construct: source: synthetic peptide, bought: Innopep Inc

NPNA3 peptide = molecular target: T4, NPNA3 peptide (Plasmodium falciparum (synthetic CSP …)); experiment: crystal structure; Fab at 10 mg/ml mixed with peptide at 1:5 molar ratio of Fab to peptide; sitting drop vapor diffusion
T4 construct: source: synthetic peptide, bought: Innopep Inc

[4] = molecular target: T3, NPNA2 peptide (Ac-[residues …); experiment: as above

| Binder | Kd [1] [nM] | Kd [2] [nM] | Kd [3] [nM] | binding result (NPNA3 peptide) | binding result [4] |
| --- | --- | --- | --- | --- | --- |
| B1 | 30 | 82 | 8270 | – | – |
| B2 | 92 | 255 | 2740 | – | – |
| B3 | – | – | – | binds | – |
| B4 | 94 | 5920 | – | binds | – |
| B5 | 111 | 70 | 132 | – | – |
| B6 | – | – | – | – | binds |
